Tests used:
[1] = molecular target: HRAS peptide, …(OMe)-farnesyl; experiment: ITC; PDE6D (100-300 μM) in the syringe, peptides (10-30 μM) in the cell; 25 °C; 10 mM Tris pH 7.5, 150 mM NaCl, 2 mM DTT, 5% DMSO
[2] = molecular target: KRAS WT peptide, …(OMe)-farnesyl; experiment: as above
PDE6D (Homo sapiens) = PDE6D (Homo sapiens) (UniProt O43924); details: cited from earlier work

Chain of INPP5E (Q9NRR6 1-641): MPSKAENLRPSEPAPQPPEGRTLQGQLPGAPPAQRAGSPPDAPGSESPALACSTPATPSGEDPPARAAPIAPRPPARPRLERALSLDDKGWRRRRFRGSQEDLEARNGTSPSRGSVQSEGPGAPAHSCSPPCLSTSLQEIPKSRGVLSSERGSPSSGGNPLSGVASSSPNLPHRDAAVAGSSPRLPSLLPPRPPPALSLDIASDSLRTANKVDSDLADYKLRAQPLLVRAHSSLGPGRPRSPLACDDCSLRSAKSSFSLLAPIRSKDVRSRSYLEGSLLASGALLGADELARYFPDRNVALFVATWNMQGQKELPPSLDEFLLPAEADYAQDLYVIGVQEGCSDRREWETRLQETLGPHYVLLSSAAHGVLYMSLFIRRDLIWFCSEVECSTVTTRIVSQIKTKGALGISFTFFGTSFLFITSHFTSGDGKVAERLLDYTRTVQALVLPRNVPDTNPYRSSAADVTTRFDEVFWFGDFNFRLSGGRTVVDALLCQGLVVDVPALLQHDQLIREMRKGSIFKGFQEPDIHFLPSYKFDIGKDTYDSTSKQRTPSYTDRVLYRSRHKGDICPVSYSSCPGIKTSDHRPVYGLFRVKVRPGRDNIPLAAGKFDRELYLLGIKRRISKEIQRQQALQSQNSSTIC

Kd [1] [µM]	Kd [2] [µM]	Substance	Kd (PDE6D (Homo sapiens)) [µM]
2.7	1.3	PDE6D (phosphodiesterase 6 delta), wild type, polyhistidine tag removed (from UniProt O43924 1-150) (natural protein)	–
–	–	INPP5E (from UniProt Q9NRR6)	0.01
